How the values were obtained:
Assay in all cases: FRET or BRET; apparent FRET efficiency by donor (CFP) dequenching after photobleaching of the acceptor (YFP) with 514 nm in a membrane region of whole Xenopus oocytes that co-express the two labelled subunits (cRNAs 1:1)
[1] = biological target: human mGluR8 FRET sensor subunit (CFP or YFP in the intracellular loop i2, C-terminal tail replaced by a GABAB tail)
[2] = biological target: human mGluR5 FRET sensor subunit (CFP or YFP in the intracellular loop i2, C-terminal tail replaced by a GABAB tail)
[3] = biological target: human mGluR3 FRET sensor subunit (CFP or YFP in the intracellular loop i2, C-terminal tail replaced by a GABAB tail)
[4] = biological target: human mGluR4 FRET sensor subunit (CFP or YFP in the intracellular loop i2, C-terminal tail replaced by a GABAB tail)

Substance | apparent FRET efficiency (donor dequenching) [1] [%] | increase of donor light intensity after photobleaching of the acceptor (FRET efficiency) [2] [%] | apparent FRET efficiency (donor dequenching) [3] [%] | apparent FRET efficiency (donor dequenching) [4] [%]
human mGluR4 FRET sensor subunit (CFP or YFP in the intracellular loop i2, C-terminal tail replaced by a GABAB tail) (receptor) | 13 | – | – | –
human mGluR5 FRET sensor subunit (CFP or YFP in the intracellular loop i2, C-terminal tail replaced by a GABAB tail) (receptor) | – | 23 | – | –
human mGluR2 FRET sensor subunit (CFP or YFP in the intracellular loop i2, C-terminal tail replaced by a GABAB tail) (receptor) | 35 | – | 35 | 35
